This note sets out measurements from publication PMC9325726.

Where no end group is shown, it is not given here. The star is where a group is joined. αGalNAc = CC(=O)N[C@@H]1[C@@H](O)[C@@H](O)[C@@H](CO)O[C@@H]1*

The target in the assay is T1, wild-type AM0627^A21-E506 (Akkermansia muciniphila) (UniProt B2UPI7).
T1 sequence: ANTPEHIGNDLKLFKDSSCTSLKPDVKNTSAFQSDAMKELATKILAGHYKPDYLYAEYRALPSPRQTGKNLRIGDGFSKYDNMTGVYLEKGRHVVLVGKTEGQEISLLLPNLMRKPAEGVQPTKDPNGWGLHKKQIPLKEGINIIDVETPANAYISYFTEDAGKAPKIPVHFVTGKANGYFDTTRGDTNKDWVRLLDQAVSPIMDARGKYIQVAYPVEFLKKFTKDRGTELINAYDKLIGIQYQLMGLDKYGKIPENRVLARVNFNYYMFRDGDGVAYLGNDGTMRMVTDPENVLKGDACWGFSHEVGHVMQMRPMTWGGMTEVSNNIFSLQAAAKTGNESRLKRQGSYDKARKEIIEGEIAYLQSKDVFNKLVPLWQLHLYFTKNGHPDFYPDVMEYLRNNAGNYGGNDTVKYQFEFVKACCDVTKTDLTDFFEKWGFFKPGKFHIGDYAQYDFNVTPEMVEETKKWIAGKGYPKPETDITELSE

With TEAQT(αGalNAc)T(αGalNAc)PPPA-NH2 [P2, bis-Tn glycopeptide], the cleavage of P2 (500 μM) by 0.4 μM enzyme at 37 °C, MALDI-TOF time course, printed for 5 and 15 min worked out at 35%; the specific activity with P2 (500 μM), from the MALDI-TOF time course is 1.2 U/mg.
